Sequences and labels used below:
B1: toripalimab Fab L.L101K (Fab, V domains shown)
VH: QGQLVQSGAEVKKPGASVKVSCKASGYTFTDYEMHWVRQAPIHGLEWIGVIESETGGTAYNQKFKGRVTITADKSTSTAYMELSSLRSEDTAVYYCAREGITTVATTYYWYFDVWGQGTTVTVSS
VL: DVVMTQSPLSLPVTLGQPASISCRSSQSIVHSNGNTYLEWYLQKPGQSPQLLIYKVSNRFSGVPDRFSGSGSGTDFTLKISRVEAEDVGVYYCFQGSHVPKTFGQGTKLEIK
notes: as the heavy chain of Sm3; light chain of Sm3 with this change; numbers count from the chain's first residue; source: Brevibacillus, culture supernatant (ammonium sulfate precipitate); not shown: 6xHis, C-terminal, kept; 6xHN, C-terminal, kept
B2: toripalimab Fab L.L101S (Fab, V domains shown)
VH: B1 VH
VL: B1 VL with K101S
notes: as for B1
B3: toripalimab Fab H.E54A (Fab, V domains shown)
VH: B1 VH with E54A
VL: B1 VL with K101L
notes: heavy chain of Sm3 with this change; numbers count from the chain's first residue; as the light chain of Sm3; source: Brevibacillus, culture supernatant (ammonium sulfate precipitate); not shown: 6xHis, C-terminal, kept; 6xHN, C-terminal, kept
B4: toripalimab Fab L.L101N (Fab, V domains shown)
VH: B1 VH
VL: B1 VL with K101N
notes: as for B1
B5: toripalimab Fab L.L101Q (Fab, V domains shown)
VH: B1 VH
VL: B1 VL with K101Q
notes: as for B1
B6: toripalimab Fab L.L101Y (Fab, V domains shown)
VH: B1 VH
VL: B1 VL with K101Y
notes: as for B1
B7: toripalimab Fab L.L101V (Fab, V domains shown)
VH: B1 VH
VL: B1 VL with K101V
notes: as for B1
B8: toripalimab Fab L.L101M (Fab, V domains shown)
VH: B1 VH
VL: B1 VL with K101M
notes: as for B1
B9: toripalimab Fab L.L101T (Fab, V domains shown)
VH: B1 VH
VL: B1 VL with K101T
notes: as for B1

Data on nine molecules can be found in article PMC10663500, “High-throughput analysis system of interaction kinetics for data-driven antibody design” (Scientific Reports, 2023).

Residue numbers refer to the chain shown, from its start.

T2 sequence (Q15116 24-167 C93S): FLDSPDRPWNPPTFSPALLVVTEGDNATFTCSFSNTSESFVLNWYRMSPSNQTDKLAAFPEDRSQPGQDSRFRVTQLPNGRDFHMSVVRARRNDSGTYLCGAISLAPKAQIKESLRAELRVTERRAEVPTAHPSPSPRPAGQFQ

For one assay, the target named is T1, mouse programmed cell death protein 1 Fc fusion protein (mPD-1-Fc), mPD-1 C60S (aa 25-167) (Mus musculus, UniProt Q02242, stabilised).
T1 construct: not cleaved; source: Expi293F, purified (Protein A, SEC; dimeric fraction); not shown: Fc (human), C-terminal, kept
The assay is described as follows: SPR; Carterra LSA; Fab from the ammonium sulfate precipitate of the culture supernatant immobilised on a NiHC200M chip; hPD-1 (1-1024 nM) or mPD-1-Fc (4-1024 nM) as analyte, fourfold dilution series, no regeneration; HBS-EP pH 7.4, 25 °C; medians over the spots of a construct, KD = koff/kon. The settings on record: one partner purified. In outline: (§1)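 Fabs, ammonium sulfate-precipitated from Brevibacillus supernatants and redissolved in HBS-EP, were captured in duplicate on a NiHC200M chip on a Carterra LSA at 25 °C. Fourfold series of human PD-1 (1–1024 nM) or mouse PD-1-Fc (4–1024 nM) were run without regeneration, with association for 10 min and dissociation for 5 min. Rates were fitted with the kdka model, choosing the better of slow- or fast-dissociation settings, and unconfirmed binders were given kon 10^3 […] and koff 10^−2 s^−1. The dissociation constant KD is koff/kon based on per-construct medians.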
A general note: SPR reads the build-up and loss of mass on a sensor chip optically.
As usually defined, the Kd is the concentration at which binding is half-saturated. Lower therefore signals tighter binding. In general, koff refers to a measure of how fast the partners let go of each other. Higher therefore signals fast dissociation. For orientation: kon means the rate constant with which the complex forms. A high value points to faster complex formation. The molecule B1 returned a Kd of 606 nM, a koff of 0.0212 s⁻¹ and a kon of 35000 M⁻¹ s⁻¹.

Consider B2, for which binding was characterised by a dissociation constant (Kd) of 48.2 nM, the koff was found to be 0.000659 s⁻¹ and the kon came to 13700 M⁻¹ s⁻¹.

In turn, B3 displayed a Kd of 202 nM, a koff of 0.00772 s⁻¹ and a kon of 38300 M⁻¹ s⁻¹.

For B4, the affinity, expressed as Kd, was 134 nM; the koff was 0.00447 s⁻¹; the kon amounted to 33300 M⁻¹ s⁻¹.

Turning to B5, the Kd is 265 nM, the koff is 0.0143 s⁻¹ and the kon amounted to 54000 M⁻¹ s⁻¹.

Turning to B6, the Kd amounted to 125 nM, the koff was 0.00356 s⁻¹ and the on-rate (kon) turned out to be 28400 M⁻¹ s⁻¹.

B7 showed a Kd of 90.5 nM, a koff of 0.00146 s⁻¹ and a kon of 16100 M⁻¹ s⁻¹.

With B8, binding was characterised by a dissociation constant (Kd) of 24.5 nM, the off-rate constant (koff) stood at 0.000673 s⁻¹ and the kon worked out at 27500 M⁻¹ s⁻¹.

Turning to B9, the affinity, expressed as Kd, was 116 nM; the koff amounted to 0.00235 s⁻¹; the kon worked out at 20400 M⁻¹ s⁻¹.

The next assay addresses T2, human programmed cell death protein 1 (hPD-1) C93S (aa 24-167) (Homo sapiens, UniProt Q15116, C93S).
T2 construct: made as a fusion with a TEV site and human Fc; the Fc was cut off with TEV protease; source: Expi293F, purified (Protein A, TEV cleavage of Fc, SEC; monomer fractions); not shown: Fc (human), C-terminal, cleaved
Described as above. The settings on record: one partner purified. In outline:
as §1
Molecule B1 gave a Kd of 492 nM, a koff of 0.00276 s⁻¹ and a kon of 5600 M⁻¹ s⁻¹.

The molecule B2 came in with a Kd of 4.13 nM, a koff of 2.42e-05 s⁻¹ and a kon of 5870 M⁻¹ s⁻¹.

On to B3, for which the Kd was found to be 1.23 nM, the koff was 2.52e-05 s⁻¹ and the on-rate (kon) is 20400 M⁻¹ s⁻¹.

With B4, the dissociation constant (Kd) is under 1.23 nM, the koff is under 1e-05 s⁻¹ and the kon amounted to 8160 M⁻¹ s⁻¹.

Molecule B5 displayed a Kd of 2.78 nM, a koff of 2.5e-05 s⁻¹ and a kon of 8990 M⁻¹ s⁻¹.

As for B6, the Kd is under 1.18 nM, the koff is under 1e-05 s⁻¹ and the on-rate (kon) was 8500 M⁻¹ s⁻¹.

Turning to B7, the Kd turned out to be 2.41 nM, the off-rate constant (koff) was found to be 1.35e-05 s⁻¹ and the kon was found to be 5600 M⁻¹ s⁻¹.

B8 gave a Kd of under 1.08 nM, a koff of under 1e-05 s⁻¹ and a kon of 9290 M⁻¹ s⁻¹.

The molecule B9 showed a Kd of 5.05 nM, a koff of 3.03e-05 s⁻¹ and a kon of 6000 M⁻¹ s⁻¹.
